From patent US20240270857A1 (CHIA TAI TIANQING PHARMACEUTICAL GROUP, published 2024)
Like-named read-outs stand apart in the source and are kept apart here.

T1: human IL-36R overexpressed on 293T-hIL36R-NFκB cells (human, UniProt Q9HB29 20-575)
T1 sequence: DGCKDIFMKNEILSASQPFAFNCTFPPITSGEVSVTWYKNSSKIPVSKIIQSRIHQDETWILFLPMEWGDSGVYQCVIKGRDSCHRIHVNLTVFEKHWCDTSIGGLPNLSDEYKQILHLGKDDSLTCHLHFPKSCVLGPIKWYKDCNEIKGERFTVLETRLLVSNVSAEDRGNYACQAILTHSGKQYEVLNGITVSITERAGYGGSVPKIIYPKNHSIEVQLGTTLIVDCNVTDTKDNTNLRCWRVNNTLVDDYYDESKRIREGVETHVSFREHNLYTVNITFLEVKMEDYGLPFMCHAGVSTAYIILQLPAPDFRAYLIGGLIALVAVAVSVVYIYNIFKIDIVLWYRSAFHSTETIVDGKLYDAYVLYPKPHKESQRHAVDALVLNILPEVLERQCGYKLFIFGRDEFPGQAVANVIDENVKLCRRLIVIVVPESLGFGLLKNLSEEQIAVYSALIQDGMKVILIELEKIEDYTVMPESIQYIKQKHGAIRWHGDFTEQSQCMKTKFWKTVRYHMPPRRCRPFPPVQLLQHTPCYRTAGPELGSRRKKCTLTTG

T2: IL-36R naturally expressed on OVCAR8 cells and on normal human epidermal keratinocytes (NHK cells) (human, UniProt Q9HB29 20-575)
T2 sequence (looked up): T1 sequence

T3: Human IL-1Rrp2/IL-1R6 protein, His Tag (ACROBiosystems, IL2-H52H6) (human, UniProt Q9HB29 20-335)
T3 construct: Bought protein; the soluble protein is likely only the extracellular part; also called hIL-36R; human IL36R antigen; not shown: His tag
T3 sequence: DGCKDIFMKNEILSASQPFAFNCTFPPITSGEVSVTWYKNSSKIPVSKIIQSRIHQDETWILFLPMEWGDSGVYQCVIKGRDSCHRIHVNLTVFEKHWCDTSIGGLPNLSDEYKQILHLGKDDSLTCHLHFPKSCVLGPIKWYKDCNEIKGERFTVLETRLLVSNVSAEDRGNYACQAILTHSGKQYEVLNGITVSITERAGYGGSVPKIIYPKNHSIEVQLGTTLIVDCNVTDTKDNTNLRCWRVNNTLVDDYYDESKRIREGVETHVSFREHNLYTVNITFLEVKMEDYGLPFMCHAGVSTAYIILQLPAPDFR

B1: chimeric 84C4 antibody (antibody, human IgG4 S228P, kappa)
heavy: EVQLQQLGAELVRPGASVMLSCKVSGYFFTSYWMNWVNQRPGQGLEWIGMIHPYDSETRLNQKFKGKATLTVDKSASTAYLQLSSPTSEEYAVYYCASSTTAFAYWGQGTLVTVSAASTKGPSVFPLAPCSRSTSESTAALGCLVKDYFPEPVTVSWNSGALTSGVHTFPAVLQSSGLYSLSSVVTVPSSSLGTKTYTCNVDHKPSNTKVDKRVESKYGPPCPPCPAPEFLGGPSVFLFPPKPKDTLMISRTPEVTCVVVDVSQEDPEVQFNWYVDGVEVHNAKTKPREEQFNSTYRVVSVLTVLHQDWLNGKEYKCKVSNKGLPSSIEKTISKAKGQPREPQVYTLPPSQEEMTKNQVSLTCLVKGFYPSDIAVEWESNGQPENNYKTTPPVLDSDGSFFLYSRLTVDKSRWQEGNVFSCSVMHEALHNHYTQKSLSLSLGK
light: DILMTQSPSSLSASLGERVSLTCRASQDIGNALNWLQQAPDGTIKRLIYATSSLDPGVPKRFSGSRSGSDYSLTISSLASEDFVYYYCLQYASSPYTFGGGTKLEIKRTVAAPSVFIFPPSDEQLKSGTASVVCLLNNFYPREAKVQWKVDNALQSGNSQESVTEQDSKDSTYSLSSTLTLSKADYEKHKVYACEVTHQGLSSPVTKSFNRGEC
notes: Mouse variable regions on human IgG4 / kappa; also called xi84C4
B2: BI655130 (antibody, human IgG1, kappa, L234A L235A)
heavy: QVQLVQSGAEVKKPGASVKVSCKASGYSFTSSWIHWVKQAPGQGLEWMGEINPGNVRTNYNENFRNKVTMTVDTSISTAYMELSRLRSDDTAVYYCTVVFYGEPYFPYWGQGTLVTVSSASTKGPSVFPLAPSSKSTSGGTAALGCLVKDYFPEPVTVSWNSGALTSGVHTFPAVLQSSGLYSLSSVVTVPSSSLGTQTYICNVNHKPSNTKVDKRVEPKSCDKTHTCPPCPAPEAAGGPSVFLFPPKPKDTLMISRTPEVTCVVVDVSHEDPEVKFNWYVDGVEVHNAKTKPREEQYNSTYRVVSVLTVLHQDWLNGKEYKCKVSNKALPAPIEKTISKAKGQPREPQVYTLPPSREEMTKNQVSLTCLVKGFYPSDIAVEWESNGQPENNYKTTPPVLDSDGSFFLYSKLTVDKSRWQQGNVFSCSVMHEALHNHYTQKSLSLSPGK
light: QIVLTQSPGTLSLSPGERATMTCTASSSVSSSYFHWYQQKPGQAPRLWIYRTSRLASGVPDRFSGSGSGTDFTLTISRLEPEDAATYYCHQFHRSPLTFGAGTKLEIKRTVAAPSVFIFPPSDEQLKSGTASVVCLLNNFYPREAKVQWKVDNALQSGNSQESVTEQDSKDSTYSLSSTLTLSKADYEKHKVYACEVTHQGLSSPVTKSFNRGEC
notes: also called Spesolimab
B3: chimeric 72C1 antibody (antibody, human IgG4 S228P, kappa)
heavy: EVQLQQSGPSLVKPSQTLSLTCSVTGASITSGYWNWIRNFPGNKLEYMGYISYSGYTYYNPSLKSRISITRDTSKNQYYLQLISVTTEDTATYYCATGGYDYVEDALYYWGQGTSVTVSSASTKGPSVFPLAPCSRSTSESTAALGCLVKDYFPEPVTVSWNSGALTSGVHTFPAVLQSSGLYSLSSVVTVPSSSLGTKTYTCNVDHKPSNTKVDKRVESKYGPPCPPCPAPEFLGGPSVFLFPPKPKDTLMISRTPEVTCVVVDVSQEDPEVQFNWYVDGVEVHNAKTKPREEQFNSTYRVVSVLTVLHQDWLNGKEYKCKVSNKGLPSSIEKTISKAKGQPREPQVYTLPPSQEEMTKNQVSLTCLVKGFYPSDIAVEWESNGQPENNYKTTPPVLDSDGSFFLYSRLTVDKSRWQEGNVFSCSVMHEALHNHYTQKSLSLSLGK
light: EILLTQSPAIMSATLGEKVTMSCRASSNVRYMYWYQLKSGASPKLWIYLTSNLASGVPARFSGSGSGTSYSLTISSVEAEDAATYFCQQFTTSPYTFGGGTKLEIKRTVAAPSVFIFPPSDEQLKSGTASVVCLLNNFYPREAKVQWKVDNALQSGNSQESVTEQDSKDSTYSLSSTLTLSKADYEKHKVYACEVTHQGLSSPVTKSFNRGEC
notes: Mouse variable regions on human IgG4 / kappa; also called xi72C1

Legend:
[1] = target: T1, human IL-36R overexpressed on …; assay: cell-based or functional assay
[2] = target: T1, human IL-36R overexpressed on …; assay: cell-based or functional assay; remark: listed apart in the source
[3] = target: T2, IL-36R naturally expressed on OVCAR8 …; assay: cell-based or functional assay
[4] = target: T2, IL-36R naturally expressed on OVCAR8 …; assay: cell-based or functional assay; remark: listed apart in the source
[5] = target: T2, IL-36R naturally expressed on OVCAR8 …; assay: cell-based or functional assay; remark: listed apart in the source
[6] = target: T2, IL-36R naturally expressed on OVCAR8 …; assay: cell-based or functional assay; remark: listed apart in the source
[7] = target: T1, human IL-36R overexpressed on …; assay: cell-based or functional assay; remark: listed apart in the source
[8] = target: T1, human IL-36R overexpressed on …; assay: cell-based or functional assay; remark: listed apart in the source
[9] = target: T1, human IL-36R overexpressed on …; assay: cell-based or functional assay; remark: listed apart in the source
[10] = target: T2, IL-36R naturally expressed on OVCAR8 …; assay: cell-based or functional assay; remark: listed apart in the source
[11] = target: T3, Human IL-1Rrp2/IL-1R6 protein, His Tag …; assay: BLI (ForteBio Octet), antibody on ProA sensor, 1:1 model
Experimental: The affinity of anti-IL-36R antibodies to CynoIL36R-ECD mFc and human IL-1Rrp2/IL-IR6 protein, His Tag (ACROBiosystems, IL2-H52H6) was measured by a ForteBio molecular interaction instrument. […] And then the biosensor was used to bind CynoIL36R-ECD mFc or human IL-1Rrp2/IL-1R6 protein, His Tag which was diluted by a gradient (the initial concentration was 200 nM, 2-fold gradient dilution), the response signals were detected in real time using a Fortebio molecular interaction instrument (SARTORIUS, octet red 96e), and association and dissociation curves were obtained. After the completion of dissociation in each cycle, the biosensor was regenerated for the next capture; the procedure was repeated until the affinity of the different anti-IL-36R antibodies for IL-36R was determined. The resulting data were analyzed by Fortebio Data Analysis 11.0 software in a 1:1 (Langmuir) binding model to determine kₐ (kₒₙ) and kd (koff) values, and the dissociation constant KD was calculated by KD=kd/kₐ. The detection method essentially followed the manufacturer's recommendations, and more information could be found at www.fortebio.com.

[12] = target: T1, human IL-36R overexpressed on …; assay: FACS on 293T-hIL36R-NFκB cells, ratio of MFI to background MFI
Experimental: After the cells was washed with PBS, the cells were resuspended with 100 μL of PBS and then the fluorescence signal was detected using a flow cytometer (BD, Accuri C6). […] The ratio was the ratio of mean fluorescence intensity (MFI) of the experimental group/the background MFI, and the resulting data were analyzed using GraphPad Prism.

Row | Binder | IC50; NFκB-luciferase reporter in 293T-hIL36R-NFκB cells stimulated with hIL36α, inhibition rate % [1] [nM] | IC50; NFκB-luciferase reporter in 293T-hIL36R-NFκB cells stimulated with hIL36β, inhibition rate % [2] [nM] | IC50; IL-8 production of OVCAR8 cells stimulated with hIL36α, inhibition rate % [3] [nM] | IC50; IL-8 production of OVCAR8 cells stimulated with hIL36β, inhibition rate % [4] [nM] | IC50; IL-8 production of OVCAR8 cells stimulated with hIL36γ, inhibition rate % [5] [nM] | IC50; IL-8 production of NHK cells stimulated with hIL36α, inhibition rate % [6] [nM] | IC50; NFκB-luciferase reporter in 293T-hIL36R-NFκB cells stimulated with hIL36α, inhibition rate % [7] [nM] | IC50; NFκB-luciferase reporter in 293T-hIL36R-NFκB cells stimulated with hIL36β, inhibition rate % [8] [nM] | IC50; NFκB-luciferase reporter in 293T-hIL36R-NFκB cells stimulated with hIL36γ, inhibition rate % [9] [nM] | IC50; IL-8 production of NHK cells stimulated with hIL36α, inhibition rate % [10] [nM] | Kd [11] [nM] | koff [11] [s⁻¹] | kon [11] [M⁻¹ s⁻¹] | EC50 [12] [nM]
1 | B1 | 3.25 | 2.79 | 0.0181 | 0.113 | 0.0181 | 1.02 | – | – | – | – | – | – | – | –
2 | B2 | 6.09 | 2.45 | 0.0927 | 0.0861 | 0.0592 | 0.214 | 3.62 | 5.02 | 4.74 | 0.0741 | 0.245 | 1.57e-05 | 64100 | 7.02
3 | B3 | – | – | – | – | – | – | 8 | 7.51 | 10.5 | 0.159 | 0.736 | 4.38e-05 | 59600 | 6.47
